In patent US12076374B1, “Anti-microbial and anti-inflammatory compositions and methods for treating enteric diseases in animals” (Vets Plus, Inc., priority 2019, dated 2024):

Legend:
Type in all cases: in vivo
Eimeria tenella = assay: E. tenella infection (coccidiosis) in broiler chickens, growth performance and oocysts
[1] = 28-d feeding trial in weaned pigs with diarrhea, fecal score and growth performance
Procedure: Weaning can be a stressful time for performance animals that are transitioning to new food and newly encountering enteric pathogens. These factors can result in diarrhea to varying degrees. The objective of this study was to evaluate the effect of supplementing dietary ovotransferrin of the invention to pigs that had slight diarrhea within a week upon weaning. Growth performance and fecal score were measured. […] Pigs with diarrhea were housed in the nursery pens with 3 pigs per pen and allowed free access to the diet and water ad-libitum for the entire experimental period. Then, they were treated with a solution mixed with electrolytes and ovotransferrin by drenching for 3 days. Ovotransferrin was produced as described in example 1. The pigs were fed test diets containing 0, 0.5, and 1.0% ovotransferrin of the invention. Body weight were recorded at day 0 (study initiation), day 7, 14, 21, and 28 postweaning. Average daily gain (ADG), average daily feed intake (ADFI) and gain:feed (G:F) ratio were calculated weekly from day 7-28 postweaning. Corn-soybean meal-based diets were used for 28 days with 2 phases (Phase 1: day 0-14 postweaning and Phase 2: day 15-28 postweaning). Ovotransferrin was added to the diets by replacing corn starch proportionally. Fecal score was recorded daily through day 14. Body weight and feed consumption were recorded weekly for the diarrhea pigs.

gut microbiome = assay: Fecal 16S rRNA microbiome analysis of newly weaned piglets with diarrhea
Description: The microbiome of newly weaned piglets with diarrhea was examined when treated with components of the invention. Fecal samples of N=3 control (C) newly weaned piglets without diarrhea (D) and for N=6 newly weaned piglets that did have diarrhea were examined. 3 of these piglets with diarrhea were randomly selected and treated (T3) with 2.5 grams/piglet/day with ovotransferrin by mixing the ovotransferrin into dry feed for 5 consecutive days. Fecal samples were taken from the Diarrhea pigs, the Treated piglets and Control piglets after 5 days trial.
Fecal samples then had DNA was extracted using the PowerSoil DNA extraction kit (QIAGEN). Extracted DNA was then sequenced where the V4 variable region of the bacterial 16S rRNA gene was amplified (Primers 515F and 806R) and libraries constructed using a dual index approach1. 16SrRNA libraries were sequenced on a MiSeq V3 instrument (Illumina), targeting 2×300 PE reads. Bioinformatics occurred by processing of amplicons that was based on protocols that rely on several open-source software (FastQC2, cutadapt3, bbmap4 and the DADA25 plugin within QIIME26) to remove adaptors and primer sequences, merge PE reads, filter out low quality reads and generate counts of unique Amplicon Sequence Variants (ASVs) or unique taxonomic groups that represent the abundance of species and/or strains in each sample. […]

PEDV = PEDV newborn piglets, dose response of ovotransferrin drench with or without ORS; conditions: for % Survival: 100 ml drench twice daily, after 5 days
[2] = 0.5% ovotransferrin in diet, d 7-14
[3] = 0.5% ovotransferrin in diet, d 7-28
[4] = 0.5% ovotransferrin in diet, d 14-21
[5] = 0.5% ovotransferrin in diet, d 21-28
[6] = 1% ovotransferrin in diet, d 7-14
[7] = 1% ovotransferrin in diet, d 7-28
[8] = 1% ovotransferrin in diet, d 14-21
[9] = 1% ovotransferrin in diet, d 21-28

B1: ovotransferrin (protein, UniProt P02789 20-705, looked up)
Ovotransferrin: APPKSVIRWCTISSPEEKKCNNLRDLTQQERISLTCVQKATYLDCIKAIANNEADAISLDGGQAFEAGLAPYKLKPIAAEVYEHTEGSTTSYYAVAVVKKGTEFTVNDLQGKTSCHTGLGRSAGWNIPIGTLLHRGAIEWEGIESGSVEQAVAKFFSASCVPGATIEQKLCRQCKGDPKTKCARNAPYSGYSGAFHCLKDGKGDVAFVKHTTVNENAPDQKDEYELLCLDGSRQPVDNYKTCNWARVAAHAVVARDDNKVEDIWSFLSKAQSDFGVDTKSDFHLFGPPGKKDPVLKDLLFKDSAIMLKRVPSLMDSQLYLGFEYYSAIQSMRKDQLTPSPRENRIQWCAVGKDEKSKCDRWSVVSNGDVECTVVDETKDCIIKIMKGEADAVALDGGLVYTAGVCGLVPVMAERYDDESQCSKTDERPASYFAVAVARKDSNVNWNNLKGKKSCHTAVGRTAGWVIPMGLIHNRTGTCNFDEYFSEGCAPGSPPNSRLCQLCQGSGGIPPEKCVASSHEKYFGYTGALRCLVEKGDVAFIQHSTVEENTGGKNKADWAKNLQMDDFELLCTDGRRANVMDYRECNLAEVPTHAVVVRPEKANKIRDLLERQEKRFGVNGSEKSKFMMFESQNKDLLFKDLTKCLFKVREGTTYKEFLGDKFYTVISSLKTCNPSDILQMCSFLEGK
Weight (g) in chickens infected with E. tenella (Eimeria tenella; 0.5% ovotransferrin in feed day 7 through 21, Day 7): 110 ± 5 g | Weight (g) in chickens infected with E. tenella (Eimeria tenella; 0.5% ovotransferrin in feed, Day 14 (day of infection)): 283 ± 10 g | Weight (g) in chickens infected with E. tenella (Eimeria tenella; 0.5% ovotransferrin in feed, Day 21): 470 ± 15 g | Weight (g) in chickens infected with E. tenella (Eimeria tenella; 1.0% ovotransferrin in feed, Day 7): 115 ± 6 g | Weight (g) in chickens infected with E. tenella (Eimeria tenella; 1.0% ovotransferrin in feed, Day 14): 293 ± 14 g | Weight (g) in chickens infected with E. tenella (Eimeria tenella; 1.0% ovotransferrin in feed, Day 21): 529 ± 22 g | Weight (g) in chickens infected with E. tenella (Eimeria tenella; 2.0% ovotransferrin in feed, Day 7): 115 ± 6 g | Weight (g) in chickens infected with E. tenella (Eimeria tenella; 2.0% ovotransferrin in feed, Day 14): 293 ± 14 g | Weight (g) in chickens infected with E. tenella (Eimeria tenella; 2.0% ovotransferrin in feed, Day 21): 571 ± 15 g | Oocysts count in fecal sample (Eimeria tenella; as compared with positive infected control, *p<0.01): significantly lower | Histopathology of cecum (Eimeria tenella; cecum samples at end of experiment, versus positive infected control): normal structures of cecal epithelium | E. tenella infection (Eimeria tenella; given alone in feed): inhibited E. tenella infection | Feed conversion rate (Eimeria tenella; treated groups, E. tenella infected broiler chickens): higher | Fecal score ([1]; 0.5% ovotransferrin in diet, d 0-7, scale ≤1 normal to 4 liquid, severe diarrhea): 1.81 | Fecal score ([1]; 0.5% ovotransferrin in diet, d 0-14 (Phase 1), scale ≤1 normal to 4 severe diarrhea): 1.80 | Fecal score ([1]; 0.5% ovotransferrin in diet, d 0-28 (Overall), scale ≤1 normal to 4 severe diarrhea): 1.68 | ADFI (average daily feed intake) [1, 2]: 581.17 g/day | ADG (average daily gain) [1, 2]: 356.06 g/day | G:F (gain:feed ratio) [1, 2]: 0.613 | Fecal score ([1]; 0.5% ovotransferrin in diet, d 7-14, scale ≤1 normal to 4 severe diarrhea): 1.79 | ADFI (average daily feed intake) [1, 3]: 868.33 g/day | ADG (average daily gain) [1, 3]: 540.76 g/day | G:F (gain:feed ratio) [1, 3]: 0.623 | Body weight ([1]; 0.5% ovotransferrin in diet, d 7 postweaning): 7.87 kg | Body weight ([1]; 0.5% ovotransferrin in diet, d 14): 10.37 kg | ADFI (average daily feed intake) [1, 4]: 933.98 g/day | ADG (average daily gain) [1, 4]: 566.02 g/day | G:F (gain:feed ratio) [1, 4]: 0.606 | Body weight ([1]; 0.5% ovotransferrin in diet, d 21): 14.33 kg | ADFI (average daily feed intake) [1, 5]: 1089.83 g/day | ADG (average daily gain) [1, 5]: 700.22 g/day | G:F (gain:feed ratio) [1, 5]: 0.643 | Body weight ([1]; 0.5% ovotransferrin in diet, d 28): 19.23 kg | Fecal score ([1]; 1% ovotransferrin in diet, d 0-7, scale ≤1 normal to 4 severe diarrhea): 1.57 | Fecal score ([1]; 1% ovotransferrin in diet, d 0-14 (Phase 1), scale ≤1 normal to 4 severe diarrhea): 1.61 | Fecal score ([1]; 1% ovotransferrin in diet, d 0-28 (Overall), scale ≤1 normal to 4 severe diarrhea): 1.58 | Body weight ([1]; 1% ovotransferrin in diet, d 7): 7.61 kg | ADFI (average daily feed intake) [1, 6]: 654.76 g/day | ADG (average daily gain) [1, 6]: 496.75 g/day | G:F (gain:feed ratio) [1, 6]: 0.759 | Fecal score ([1]; 1% ovotransferrin in diet, d 7-14, scale ≤1 normal to 4 severe diarrhea): 1.64 | ADFI (average daily feed intake) [1, 7]: 1043.29 g/day | ADG (average daily gain) [1, 7]: 645.02 g/day | G:F (gain:feed ratio) [1, 7]: 0.618 | Body weight ([1]; 1% ovotransferrin in diet, d 14): 11.09 kg | ADFI (average daily feed intake) [1, 8]: 1084.42 g/day | ADG (average daily gain) [1, 8]: 584.42 g/day | G:F (gain:feed ratio) [1, 8]: 0.539 | Body weight ([1]; 1% ovotransferrin in diet, d 21): 15.18 kg | ADFI (average daily feed intake) [1, 9]: 1390.69 g/day | ADG (average daily gain) [1, 9]: 853.90 g/day | G:F (gain:feed ratio) [1, 9]: 0.614 | Body weight ([1]; 1% ovotransferrin in diet, d 28): 21.16 kg | Microbiome diversity (Shannon index, Bray-Curtis PCoA) (gut microbiome; 2.5 grams/piglet/day in dry feed for 5 consecutive days, fecal samples): brought the microbiome diversity back to levels similar to the control piglets | Abundance of Veilloneaceae, Entreobacteriaceae, Paraprevotellaceae and Treponema (gut microbiome; 2.5 grams/piglet/day in dry feed for 5 days, indicator species analysis): Reductions to the initial control baselines | % Survival (PEDV; 2 grams of ovotransferrin in water): 40% | Defecations/day/group (PEDV; 2 grams of ovotransferrin, Day 0): 30 Defecations/day/group | Defecations/day/group (PEDV; 2 grams of ovotransferrin, Day 1): 18 Defecations/day/group | Defecations/day/group (PEDV; 2 grams of ovotransferrin, Day 3): 14 Defecations/day/group | Defecations/day/group (PEDV; 2 grams of ovotransferrin, Day 5): 12 Defecations/day/group | % Survival (PEDV; 5 grams of ovotransferrin in water): 60% | Defecations/day/group (PEDV; 5 grams of ovotransferrin, Day 0): 26 Defecations/day/group | Defecations/day/group (PEDV; 5 grams of ovotransferrin, Day 1): 18 Defecations/day/group | Defecations/day/group (PEDV; 5 grams of ovotransferrin, Day 3): 15 Defecations/day/group | Defecations/day/group (PEDV; 5 grams of ovotransferrin, Day 5): 12 Defecations/day/group
